The text below walks through data of PMC3396760.

The data set in a line: in-culture cell surface labelling with cell-impermeable BG-682. The following applies: glycan lost; control: wild type SNAP-Crb3a.

B1: Crumbs3a (Crb3a): N36D (protein)
parent chain: MANPGLGLLLALGLPFLLARWGRAWGQIQTTSANENSTVLPSSTSSSSDGNLRPEAITAIIVVFSLLAALLLAVGLALLVRKLREKRQTEGTYRPSSEEQVGARVPPTPNLKLPPEERLI
For the protein B1, the localisation_or_trafficking result is listed as “no change”.
